According to patent publication US10011657B2, “Anti-CS1 antibodies and antibody drug conjugates” (AbbVie Biotherapeutics Inc., priority 2014, dated 2018):
Substitutions are numbered along the chain they refer to.

B1: Hu27A12: humanized anti-CS1 antibody, VH SEQ ID NO: 24, VL SEQ ID NO: 26 (antibody, V domains shown)
VH: EVQLVESGGGLVQPGGSLRLSCAASGFTFSDYYMAWVRQAPGKGLEWVAEINYDGSSTYYVDSVKGRFTISRDNAKNSLYLQMNSLRAEDTAVYYCARDRGFYFDYWGQGTTVTVSS
VL: DVVMTQTPLSLSVTPGQPASISCRSSQSLVHNNGNTYLHWYLQKPGQSPQLLIYKVSNRFSGVPDRFSGSGSGTDFTLKISRVEAEDVGVYFCSQSTHVPPYTFGGGTKVEIK
B2: Hu31D2: humanized anti-CS1 antibody, VH SEQ ID NO: 16, VL SEQ ID NO: 19 (antibody, V domains shown)
VH: B1 VH with E50D, S56G, V61L, V64L, G66S, F102Y, T112L
VL: B1 VL with T7S, S12P, Q17E, N32S, Y102F
B3: Elotuzumab: monoclonal humanized IgG1 anti-CS1 antibody disclosed as HuLuc63 in U.S. Pat. No. 7,709,610 (antibody, V domains shown)
VH: EVQLVESGGGLVQPGGSLRLSCAASGFDFSRYWMSWVRQAPGKGLEWIGEINPDSSTINYAPSLKDKFIISRDNAKNSLYLQMNSLRAEDTAVYYCARPDGNYWYFDVWGQGTLVTVSS
VL: DIQMTQSPSSLSASVGDRVTITCKASQDVGIAVAWYQQKPGKVPKLLIYWASTRHTGVPDRFSGSGSGTDFTLTISSLQPEDVATYYCQQYSSYPYTFGQGTKVEIKR

What was measured:
human CS1 [1] = target: T1, human CS1 (Homo sapiens, UniProt Q9NQ25); assay: Flow-cytometry competition assay with AF488-labeled PDL241 (humanized antibodies, Example 5); format: binding; settings: 293s cells transfected with human CS1; 50 μg/mL test antibody, 5 μg/mL labeled PDL241
T1 construct: expressed in transfected cells; host or cells: 293s cells
T1 sequence (Q9NQ25 23-335): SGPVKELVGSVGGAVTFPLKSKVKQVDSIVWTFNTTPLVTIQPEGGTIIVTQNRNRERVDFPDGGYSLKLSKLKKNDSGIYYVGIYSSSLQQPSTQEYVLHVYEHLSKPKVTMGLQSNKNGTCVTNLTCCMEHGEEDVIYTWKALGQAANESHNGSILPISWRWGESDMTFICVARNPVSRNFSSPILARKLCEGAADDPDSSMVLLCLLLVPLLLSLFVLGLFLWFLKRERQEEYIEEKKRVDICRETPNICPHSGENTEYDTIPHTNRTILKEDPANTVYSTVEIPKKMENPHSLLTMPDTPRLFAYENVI
Experimental: 293s cells transfected with human CS1 were incubated at various concentrations with an AF488 labeled PDL241 antibody. […] Transfected 293s cells (300,000 cells per data point) were incubated for 30 min (on ice) with a tenfold excess of unlabeled test antibody (50 μg/mL). After the incubation, 5 μg/mL of AF488-labeled PDL241 was added to the cells and incubated on ice for 30 minutes. After this incubation, the cells were washed with PBS+1% FBS and binding of AF488-labeled PDL241 was determine by flow cytometry.

human CS1 [2] = target: T1, human CS1; assay: Flow-cytometry competition assay with AF488-labeled elotuzumab; format: binding; settings: 293s cells transfected with human CS1; 100 μg/mL test antibody, 10 μg/mL labeled elotuzumab
Experimental: A similar experiment was conducted with AF488-labeled elotuzumab at 10 μg/mL. Transfected 293s cells (300,000 cells per data point) were incubated for 30 min (on ice) with a tenfold excess of unlabeled antibody (100 μg/mL). After the incubation, 10 μg/mL of AF488-labeled elotuzumab was added to the cells and incubated on ice for 30 minutes. After this incubation, the cells were washed with PBS+1% FBS and binding of AF488-labeled elotuzumab determined by flow cytometry.

HuCS1 = target: T2, HuCS1 (Homo sapiens, UniProt Q9NQ25); assay: Flow-cytometry competition assay with AF488-labeled Luc34.3.8 on L-363 cells; format: binding; settings: 20 μg/mL test antibody, 2 μg/mL labeled Luc34.3.8
T2 construct: L-363 cells (human multiple myeloma cell line) expressing HuCS1; endogenous in cells; host or cells: L-363 human multiple myeloma cell line
T2 sequence (Q9NQ25 23-335): as above
Experimental: A similar experiment was conducted with AF488-labeled Luc34.3.8 at 2 μg/mL. L-363 cells (human multiple myeloma cell line) expressing HuCS1 (300,000 cells per data point) was incubated for 30 min (on ice) with a tenfold excess of unlabeled test antibody (20 μg/mL). After the incubation, 2 μg/mL of AF488-labeled Luc34.3.8 was added to the cells and incubated on ice for 30 minutes. After this incubation, the cells were washed with PBS+1% FBS, and binding of AF488-labeled […] determined by flow cytometry.

human CS1 [3] = target: T1, human CS1; assay: Flow-cytometry competition assay with AF488-labeled Hu34C3; format: binding; settings: 293s cells transfected with human CS1; 100 μg/mL test antibody, 10 μg/mL labeled Hu34C3
Experimental: For the competition assays, transfected 293s cells (300,000 cells per data point) were incubated for 30 min (on ice) with a tenfold excess of unlabeled test antibody (100 μg/mL).

[4] = test system: relapsed or refractory multiple myeloma; settings: elotuzumab added to lenalidomide and dexamethasone vs lenalidomide and dexamethasone control group; cited from earlier work

Molecule	Competition with AF488-labeled PDL241 for binding (human CS1 [1])	Competition with AF488-labeled elotuzumab for binding (human CS1 [2])	Competition with AF488-labeled Luc34.3.8 for binding (HuCS1)	Competition with AF488-labeled Hu34C3 for binding (human CS1 [3])	Relative reduction in the risk of disease progression or death [4] [%]
B1	do not compete with, and bind different epitopes than, PDL241	do not compete with, and bind different epitopes than, elotuzumab	do not compete with, and bind different epitopes than, Luc34.3.8	None of the anti-CS1 antibodies tested (including Hu27A12 and Hu31D2) compete with Hu34C3	–
B2	do not compete with, and bind different epitopes than, PDL241	do not compete with, and bind different epitopes than, elotuzumab	do not compete with, and bind different epitopes than, Luc34.3.8	None of the anti-CS1 antibodies tested (including Hu27A12 and Hu31D2) compete with Hu34C3	–
B3	–	–	–	–	30
